The target of test [1] is T1, synthetic peptide (epitope peptide) corresponding to the sequence from the N terminus to position 15 of CD3.
T1 construct: also called XDGNEEMGGITQTPY
T1 peptide: [pGlu]DGNEEMGGITQTPY
The test can be described thus: X-ray crystal structure of the Fab with the epitope peptide. The method, then: Furthermore, a sample was prepared by adding, to the obtained anti-CD3 antibody Fab fragment, a synthetic peptide (epitope peptide) which corresponds to the sequence from the N terminus to position 15 of CD3 and shown in SEQ ID NO: 14 below: XDGNEEMGGITQTPY (X: L-pyroglutamic acid) (SEQ ID NO: 14) to become 2 mM. The vapor diffusion method was used to obtain crystals from the sample by allowing the sample to stand at 20° C. under reservoir conditions of 100 mM MES buffer at pH7.0, 0.91% PEG3350, and 1.0 M sodium citrate tribasic dihydrate. These crystals were subject to X-ray crystallography based on the above-mentioned crystal structure of the anti-CD3 antibody Fab fragment alone according to a method known to those skilled in the art to obtain the crystal structure of a complex of the anti-CD3 antibody Fab fragment and the epitope peptide from the diffraction intensity data at 25 to 3.5 angstrom resolution. Its crystallographic reliability factor R (R factor) and Free R value (R free) were 18.55% and 26.53%, respectively.

Another test concerns the target T2, CD3εδ heterodimer (Homo sapiens (Human), UniProt P07766 22-126; P04234 22-100).
T2 construct: also called CD3ε8
The test can be described thus: SPR, Biacore T200; antibody captured on Protein G (CM3 chip), CD3εδ heterodimer as analyte, single cycle kinetics, 37 C. Here is the method:
The activity of binding to the CD3εδ heterodimer was measured for: the rat anti-CD3 antibody containing as the variable region the heavy chain variable region (SEQ ID NO: 10) and the light chain variable region (SEQ ID NO: 11) described in Reference Example 1; a combination of a human anti-CD3 antibody and a rat anti-CD3 antibody which contains as the variable region a heavy chain variable region (SEQ ID NO: 12) and a light chain variable region (SEQ ID NO: 13) where the light chain has been humanized by a method known to those skilled in the art; a humanized anti-CD3 antibody which contains as the variable region a heavy chain variable region (SEQ ID NO: 12) and a light chain variable region (SEQ ID NO: 13), which have been humanized by a method known to those skilled in the art; and AN121 which contains as the variable region a heavy chain variable region (SEQ ID NO: 43) and a light chain variable region (SEQ ID NO: 13). The heavy chain variable regions were fused with F760mnP17 (SEQ ID NO: 39) used as the constant region and the light chain variable regions were fused with the Kappa chain (SEQ ID NO: 36) used as the constant region, and the antibodies were expressed according to the method of Reference Example 2.
The activity of binding to the CD3εδ heterodimer was assessed using BiacoreT200. Specifically, Protein G was immobilized onto a CM3 chip by a method known to those skilled in the art, and antibodies to be evaluated were bound to the immobilized Protein G. Then, the CD3εδ heterodimer prepared at 4000, 1000, 250, 62.5, 15.6, and 3.9 nM was bound thereto, and the binding was evaluated using the single cycle kinetics mode. Measurements were taken under conditions of 20 mM ACES, 150 mM NaCl, and pH7.4 at 37° C.
In general terms: In SPR one partner is held on a chip, and binding of the other changes the refractive index at the surface.

Non-standard residues stand in square brackets, D forms with d. No end group written: not given here. pGlu = O=C1CC[C@@H](C(=O)O)N1

T2 sequence (P07766 other isoform, or with tags, fused parts or gaps mutant limits assumed, chain 1 of 2): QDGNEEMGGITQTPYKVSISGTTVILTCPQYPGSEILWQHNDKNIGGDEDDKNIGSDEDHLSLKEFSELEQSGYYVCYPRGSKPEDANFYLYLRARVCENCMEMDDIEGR
T2 sequence (P04234 other isoform, or with tags, fused parts or gaps mutant limits assumed, chain 2 of 2): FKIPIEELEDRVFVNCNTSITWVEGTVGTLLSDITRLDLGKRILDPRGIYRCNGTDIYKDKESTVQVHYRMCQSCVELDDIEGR

B1: Anti-CD3 antibody Fab fragment (humanized anti-CD3 antibody) (Fab, V domains shown)
VH: QVQLVESGGGVVQPGRSLRLSCAASGFTFSNAWMHWVRQAPGKGLEWVAQIKAKSNNYATYYAESVKGRFTISRDDSKNSLYLQMNSLKTEDTAVYYCRYVHYGAYYGVDAWGQGTTVTVSS
VL: DIVMTQSPLSLPVTPGEPASISCRSSQSLVHSNRNTYLHWYQQKPGQAPRLLIYKVSNRFSGVPDRFSGSGSGTDFTLKISRVEAEDVGVYYCGQGTQVPYTFGQGTKLEIKR
notes: Fab made by papain cleavage of a One-arm antibody
For the molecule B1, the binding result in test [1] was “binds”.

B2: CE115VH-F760mnP17/rCE115VL-k0 (Rat anti-CD3 antibody) (antibody, human IgG1, kappa, N297A, V domains shown)
VH: EVQLVETGGSLVQPGKSLKLTCATSGFTFSNAWMHWVRQSPEKQLEWVAQIKAKSNNYATYYAESVKGRFTISRDDSKSNIYLQMNSLKEEDTAVYYCRYVHYGAYYGVDAWGQGTSVTVSS
VL: DVVMTQTPVSMSVSLGGQVSISCRSSQSLVHNNGNTYVSWYIQKPSQSPQLLIYKVSNRFSGISDRFSGSGSGTDFTLKISRVEPDDLGVYYCGQGTQDPYTFGAGTKLELKR
For the molecule B2, in the test with CD3εδ heterodimer, the Kd was found to be 191 nM, the koff was 0.00771 s⁻¹ and the kon came to 40400 M⁻¹ s⁻¹.

A word on the Kd: it is the concentration at which binding is half-saturated. By koff is commonly meant the first-order rate constant of dissociation. For orientation: kon means the rate constant with which the complex forms.

The values are drawn from patent US20220401557A1 (Chugai, published 2022).
